Experimental findings from IntAct's records for PubMed 20974926 are described below.

B1: Eukaryotic peptide chain release factor subunit 1 (Schizosaccharomyces pombe (strain ATCC 38366 / 972)), P79063 (parent)
chain: MSETAEKAIEIWKIRRLVKQLINCHGNGTSMITLIIPPGEQISRYSNMLAEEYGTASNIKSRVNRLSVLSAITSTRERLKLYNKVPDNGLVIYCGEVIMEGNKTRKLNIDFEPFKPINTSQYLCDNKFHTEALAELLESDQRFGFIVMDGHQTLYGVVSGSAREVLQRFTVDLPKKHGRGGQSALRFARLRDEKRHNYVRKVAEGAVQHFITDDKPNVAGIVLAGSADFKTELGQSDLFDQRLQSRIIKTVDVSYGGDAGFNQAIELAADTLSNVKYVQEKKLIQRFFDEISLDSGKYCFGVVDTMNALQEGAVETLLCFADLDMIRYEFKNSEGNPVITYMTKEQEEKDSTNSFLLDKDTGAEMELVSSMLLSEWLAEHYKDYGANLEFVSDRSQEGMQFVKGFGGIGAVMRYQLDLSMLDPESDEFYSDSD
partner: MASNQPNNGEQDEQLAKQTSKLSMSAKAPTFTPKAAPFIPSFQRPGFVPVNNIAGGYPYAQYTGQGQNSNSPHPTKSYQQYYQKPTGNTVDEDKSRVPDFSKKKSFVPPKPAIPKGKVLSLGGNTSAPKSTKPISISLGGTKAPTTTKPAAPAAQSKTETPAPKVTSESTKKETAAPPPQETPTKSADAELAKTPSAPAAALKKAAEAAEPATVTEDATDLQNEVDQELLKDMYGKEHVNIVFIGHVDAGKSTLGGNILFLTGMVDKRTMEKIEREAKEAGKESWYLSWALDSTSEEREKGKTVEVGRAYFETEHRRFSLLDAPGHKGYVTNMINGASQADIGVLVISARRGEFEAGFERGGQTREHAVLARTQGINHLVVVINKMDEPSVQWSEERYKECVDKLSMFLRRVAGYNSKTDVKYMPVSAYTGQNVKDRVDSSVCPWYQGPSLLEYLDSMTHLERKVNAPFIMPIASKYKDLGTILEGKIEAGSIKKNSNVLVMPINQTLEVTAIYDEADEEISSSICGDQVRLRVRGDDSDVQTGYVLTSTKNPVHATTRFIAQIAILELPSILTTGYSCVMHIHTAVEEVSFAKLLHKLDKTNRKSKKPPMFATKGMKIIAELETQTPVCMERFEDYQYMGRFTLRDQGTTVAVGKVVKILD
B2: Eukaryotic peptide chain release factor GTP-binding subunit (Schizosaccharomyces pombe (strain ATCC 38366 / 972)), O74718 (parent)
chain: B1 partner
partner: B1 chain
B3: Elongation factor 1-alpha (Aeropyrum pernix (strain ATCC 700893 / DSM 11879 / JCM 9820 / NBRC 100138 / K1)), Q9YAV0 (parent)
chain: MAEKPHMNLVVIGHVDHGKSTLVGHLLYRLGYIEEKKLKELEEQAKSRGKESFKFAWILDKMKEERERGITIDLTFMKFETKKYVFTIIDAPGHRDFVKNMITGASQADAAILVVSARKGEFEAGMSTEGQTREHLLLARTMGIEQIIVAVNKMDAPDVNYDQKRYEFVVSVLKKFMKGLGYQVDKIPFIPVSAWKGDNLIERSPNMPWYNGPTLVEALDQLQPPAKPVDKPLRIPVQNVYSIPGAGTVPVGRVETGVLRVGDKVVFMPPGVVGEVRSIEMHYQQLQQAEPGDNIGFAVRGVSKSDIKRGDVAGHLDKPPTVAEEFEARIFVIWHPSAITVGYTPVIHVHTASVSSRIIEIKAKLDPKTGQVVEQNPQFLKAGDAAIVRFKPVKPLVVEKFSEIPQLGRFAMRDMNRTVGIGIVTDVKPAKVDIKAK
partner: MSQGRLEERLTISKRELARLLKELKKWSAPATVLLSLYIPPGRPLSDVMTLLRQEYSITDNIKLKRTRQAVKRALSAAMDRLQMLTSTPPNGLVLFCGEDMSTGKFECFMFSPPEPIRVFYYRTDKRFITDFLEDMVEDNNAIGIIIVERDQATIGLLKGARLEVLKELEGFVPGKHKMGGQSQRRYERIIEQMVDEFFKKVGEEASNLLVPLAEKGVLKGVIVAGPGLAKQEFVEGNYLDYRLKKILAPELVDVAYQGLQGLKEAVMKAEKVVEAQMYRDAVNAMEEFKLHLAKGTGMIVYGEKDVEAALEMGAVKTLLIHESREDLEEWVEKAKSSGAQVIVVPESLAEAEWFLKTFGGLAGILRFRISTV
B4: Peptide chain release factor subunit 1 (Aeropyrum pernix (strain ATCC 700893 / DSM 11879 / JCM 9820 / NBRC 100138 / K1)), Q9YAF1 (parent)
chain: B3 partner
partner: B3 chain

Variants of B1 are the subject of the first assay. As to conditions: with erf3_schpo sup35, O74718.
Take L173A: the “effect of a mutation on the interaction” value is “decreasing interaction”. With K176A, the “effect of a mutation on the interaction” value is reported as “decreasing interaction”.

In another assay the parent is B2. As to conditions: with erf1_schpo sup45, P79063.
Turning to E305A, the “effect of a mutation on the interaction” value is listed as “decreasing interaction”.

Regarding Y329A, the “effect of a mutation on the interaction” value is recorded as “disrupting interaction”. With T294A, the “effect of a mutation on the interaction” value is “decreasing interaction”. Still for that read-out and setting: the value for E297A was “decreasing interaction”. As to Y477A, the “effect of a mutation on the interaction” value is “disrupting interaction”.

A further assay covers variants of B3. As to conditions: with rf1_aerpe prf1, Q9YAF1.
Turning to E64A, the “effect of a mutation on the interaction” value was “disrupting interaction”. On the same count and under the same terms, the value for S337A was “disrupting interaction”; that for A338S was “disrupting interaction”; that for D73A was “decreasing interaction”. As for E65A, the “effect of a mutation on the interaction” value was “decreasing interaction”.

In the case of F379A, the “effect of a mutation on the interaction” value is given as “disrupting interaction”.

The next assay covers variants of B4. Particulars: with ef1a_aerpe tuf.
As to L293A, the “effect of a mutation on the interaction” value is listed as “disrupting interaction”. Regarding G228A, the “effect of a mutation on the interaction” value is given as “disrupting interaction”. In the case of K290A, the “effect of a mutation on the interaction” value is given as “disrupting interaction”. On the same count and under the same terms, the value for W354A was “disrupting interaction”; that for F359A was “disrupting interaction”. On the same count and under the same terms, the value for E168A was “decreasing interaction”.
